In patent US20210371480:

What was measured:
[1] = biological target: C3b (Complement Technology cat. A114), purified human C3b (UniProt P01024)
[2] = biological target: C3b (Complement Technology cat. A114), purified human C3b, P01024
Sequence of C3b (Complement Technology cat. A114), purified human C3b, P01024 (P01024 whole entry, looked up): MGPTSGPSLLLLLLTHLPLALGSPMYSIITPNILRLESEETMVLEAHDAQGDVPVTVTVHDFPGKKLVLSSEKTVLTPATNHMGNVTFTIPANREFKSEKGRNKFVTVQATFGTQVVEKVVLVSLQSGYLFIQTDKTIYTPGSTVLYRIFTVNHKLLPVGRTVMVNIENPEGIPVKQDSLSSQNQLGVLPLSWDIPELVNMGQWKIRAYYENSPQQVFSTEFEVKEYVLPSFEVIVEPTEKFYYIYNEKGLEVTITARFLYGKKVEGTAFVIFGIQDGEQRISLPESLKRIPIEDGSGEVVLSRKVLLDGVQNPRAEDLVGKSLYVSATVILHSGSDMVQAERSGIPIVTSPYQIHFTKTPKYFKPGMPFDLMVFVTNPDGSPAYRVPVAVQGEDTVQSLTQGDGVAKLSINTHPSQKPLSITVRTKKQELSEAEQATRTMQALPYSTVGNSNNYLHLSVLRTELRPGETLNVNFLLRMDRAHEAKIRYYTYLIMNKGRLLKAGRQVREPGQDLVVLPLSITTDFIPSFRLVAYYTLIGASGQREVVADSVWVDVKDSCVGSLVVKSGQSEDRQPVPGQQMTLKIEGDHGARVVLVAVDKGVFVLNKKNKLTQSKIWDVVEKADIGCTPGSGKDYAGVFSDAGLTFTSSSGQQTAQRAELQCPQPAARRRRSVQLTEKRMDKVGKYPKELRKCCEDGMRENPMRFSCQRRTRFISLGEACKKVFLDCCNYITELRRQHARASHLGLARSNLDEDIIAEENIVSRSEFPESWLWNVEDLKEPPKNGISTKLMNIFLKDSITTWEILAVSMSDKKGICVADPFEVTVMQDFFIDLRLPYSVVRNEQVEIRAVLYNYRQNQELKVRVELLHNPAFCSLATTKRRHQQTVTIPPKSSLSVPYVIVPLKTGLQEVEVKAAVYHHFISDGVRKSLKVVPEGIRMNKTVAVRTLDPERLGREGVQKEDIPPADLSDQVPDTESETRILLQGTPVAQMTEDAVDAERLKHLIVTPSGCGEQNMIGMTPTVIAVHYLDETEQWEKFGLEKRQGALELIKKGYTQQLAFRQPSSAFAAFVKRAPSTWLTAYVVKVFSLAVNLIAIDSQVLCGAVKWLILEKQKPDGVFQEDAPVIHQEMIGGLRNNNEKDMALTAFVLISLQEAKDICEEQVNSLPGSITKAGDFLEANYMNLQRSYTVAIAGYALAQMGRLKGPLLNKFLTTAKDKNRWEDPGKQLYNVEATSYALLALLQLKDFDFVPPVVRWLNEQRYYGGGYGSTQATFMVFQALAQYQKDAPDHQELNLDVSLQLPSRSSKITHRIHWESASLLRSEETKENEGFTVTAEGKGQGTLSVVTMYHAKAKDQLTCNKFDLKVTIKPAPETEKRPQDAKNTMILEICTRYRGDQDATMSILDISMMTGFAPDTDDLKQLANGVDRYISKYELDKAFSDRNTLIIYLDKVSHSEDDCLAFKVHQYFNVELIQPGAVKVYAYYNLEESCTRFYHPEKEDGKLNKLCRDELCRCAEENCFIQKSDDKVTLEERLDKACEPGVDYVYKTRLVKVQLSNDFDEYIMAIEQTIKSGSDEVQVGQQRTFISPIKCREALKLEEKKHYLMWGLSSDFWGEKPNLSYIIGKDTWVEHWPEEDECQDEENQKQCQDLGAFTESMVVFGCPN

A300T CFI protein (Complement Factor I mutant variant)
fluorescence cofactor assay: change in RFUs of ANS-labeled C3b over time, with cofactor CFH, MCP or CR1 [1]: the A300T mutation appeared to have relatively little impact on CFI function

A240G CFI protein (Complement Factor I mutant variant)
fluorescence cofactor assay: change in RFUs of ANS-labeled C3b over time, with cofactor CFH, MCP or CR1 [1]: certain CFI mutations (G119R, A240G, and P553S) were associated with greatly reduced CFI protein function

G119R CFI protein (Complement Factor I mutant variant)
fluorescence cofactor assay: change in RFUs of ANS-labeled C3b over time, with cofactor CFH, MCP or CR1 [1]: certain CFI mutations (G119R, A240G, and P553S) were associated with greatly reduced CFI protein function

P553S CFI protein (Complement Factor I mutant variant)
fluorescence cofactor assay: change in RFUs of ANS-labeled C3b over time, with cofactor CFH, MCP or CR1 [1]: certain CFI mutations (G119R, A240G, and P553S) were associated with greatly reduced CFI protein function

B1: purified CFI (Comptech cat. A138) (protein)
chain: KVTYTSQEDLVEKKCLAKKYTHLSCDKVFCQPWQRCIEGTCVCKLPYQCPKNGTAVCATNRRSFPTYCQQKSLECLHPGTKFLNNGTCTAEGKFSVSLKHGNTDSEGIVEVKLVDQDKTMFICKSSWSMREANVACLDLGFQQGADTQRRFKLSDLSINSTECLHVHCRGLETSLAECTFTKRRTMGYQDFADVVCYTQKADSPMDDFFQCVNGKYISQMKACDGINDCGDQSDELCCKACQGKGFHCKSGVCIPSQYQCNGEVDCITGEDEVGCAGFASVTQEETEILTADMDAERRRIKSLLPKLSCGVKNRMHIRRKRIVGGKRAQLGDLPWQVAIKDASGITCGGIYIGGCWILTAAHCLRASKTHRYQIWTTVVDWIHPDLKRIVIEYVDRIIFHENYNAGTYQNDIALIEMKKDGNKKDCELPRSIPACVPWSPYLFQPNDTCIVSGWGREKDNERVFSLQWGEVKLISNCSKFYGNRFYEKEMECAGTYDGSIDACKGDSGGPLVCMDANNVTYVWGVVSWGENCGKPEFPGVYTKVANYFDWISYHVGRPFISQYNV
slope of the co-factor assay (fluorescence of C3b/ANS with CFH, kinetic mode) [2]: the slope of the CFI control sample is -0.75±0.02

B2: CFI expressed in eyes of cynomolgus monkeys from AAV2-GP2031 (vector SEQ ID NO: 33) (protein)
chain: KVTYTSQEDLVEKKCLAKKYTHLSCDKVFCQPWQRCIEGTCVCKLPYQCPKNGTAVCATNRRSFPTYCQQKSLECLHPGTKFLNNGTCTAEGKFSVSLKHGNTDSEGIVEVKLVDQDKTMFICKSSWSMREANVACLDLGFQQGADTQRRFKLSDLSINSTECLHVHCRGLETSLAECTFTKRRTMGYQDFADVVCYTQKADSPMDDFFQCVNGKYISQMKACDGINDCGDQSDELCCKACQGKGFHCKSGVCIPSQYQCNGEVDCITGEDEVGCAGFASVAQEETEILTADMDAERRRIKSLLPKLSCGVKNRMHIRRKRIVGGKRAQLGDLPWQVAIKDASGITCGGIYIGGCWILTAAHCLRASKTHRYQIWTTVVDWIHPDLKRIVIEYVDRIIFHENYNAGTYQNDIALIEMKKDGNKKDCELPRSIPACVPWSPYLFQPNDTCIVSGWGREKDNERVFSLQWGEVKLISNCSKFYGNRFYEKEMECAGTYDGSIDACKGDSGGPLVCMDANNVTYVWGVVSWGENCGKPEFPGVYTKVANYFDWISYHVGRPFISQYNV
fluorescence cofactor assay with CFH: reduction in fluorescence at 472 nm of C3b/ANS mixed with vitreous humor [2]: CFI expressed in eyes of cynomolgus monkeys was capable of cleaving C3b in a dose-dependent manner
